According to patent US20130059806A1:

Experiments:
[1] = target: biotin-FLAG-tagged TR2 and TR4 (biotin-FLAG-TR2 and biotin-FLAG-TR4 co-expressed in BirA-expressing MEL cells) (UniProt Q505F1); assay: streptavidin purification of biotin-tagged TR2/TR4 from MEL nuclear extract, mass spectrometry, experiment #1
[2] = target: biotin-FLAG-tagged TR2 and TR4 (biotin-FLAG-TR2 and biotin-FLAG-TR4 co-expressed in BirA-expressing MEL cells) (UniProt Q505F1); assay: streptavidin purification of biotin-tagged TR2/TR4 from MEL nuclear extract, mass spectrometry, experiment #3
[3] = target: biotin-FLAG-tagged TR2 and TR4 (biotin-FLAG-TR2 and biotin-FLAG-TR4 co-expressed in BirA-expressing MEL cells) (UniProt Q505F1); assay: streptavidin purification of biotin-tagged TR2/TR4 from MEL nuclear extract, mass spectrometry, experiment #2

Sequence of biotin-FLAG-tagged TR2 and TR4 (biotin-FLAG-TR2 and biotin-FLAG-TR4 co-expressed in BirA-expressing MEL cells) (Q505F1 whole entry, chain 1 of 2): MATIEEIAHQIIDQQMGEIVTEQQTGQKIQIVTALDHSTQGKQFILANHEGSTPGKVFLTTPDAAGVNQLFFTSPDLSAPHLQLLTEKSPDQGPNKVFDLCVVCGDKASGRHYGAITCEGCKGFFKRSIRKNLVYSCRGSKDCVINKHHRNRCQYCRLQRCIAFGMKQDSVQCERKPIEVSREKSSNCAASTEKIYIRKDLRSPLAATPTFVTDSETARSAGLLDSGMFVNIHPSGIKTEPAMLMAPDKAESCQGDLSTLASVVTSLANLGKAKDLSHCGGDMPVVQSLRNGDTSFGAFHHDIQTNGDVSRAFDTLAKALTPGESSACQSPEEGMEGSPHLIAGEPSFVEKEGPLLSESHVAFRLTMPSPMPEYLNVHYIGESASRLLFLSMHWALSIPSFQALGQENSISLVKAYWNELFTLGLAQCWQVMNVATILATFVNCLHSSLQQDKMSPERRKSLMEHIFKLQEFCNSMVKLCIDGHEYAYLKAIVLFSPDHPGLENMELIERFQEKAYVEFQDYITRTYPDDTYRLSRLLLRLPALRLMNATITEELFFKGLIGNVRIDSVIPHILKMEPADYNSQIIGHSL
Sequence of biotin-FLAG-tagged TR2 and TR4 (biotin-FLAG-TR2 and biotin-FLAG-TR4 co-expressed in BirA-expressing MEL cells) (P49117 whole entry, chain 2 of 2, further chain): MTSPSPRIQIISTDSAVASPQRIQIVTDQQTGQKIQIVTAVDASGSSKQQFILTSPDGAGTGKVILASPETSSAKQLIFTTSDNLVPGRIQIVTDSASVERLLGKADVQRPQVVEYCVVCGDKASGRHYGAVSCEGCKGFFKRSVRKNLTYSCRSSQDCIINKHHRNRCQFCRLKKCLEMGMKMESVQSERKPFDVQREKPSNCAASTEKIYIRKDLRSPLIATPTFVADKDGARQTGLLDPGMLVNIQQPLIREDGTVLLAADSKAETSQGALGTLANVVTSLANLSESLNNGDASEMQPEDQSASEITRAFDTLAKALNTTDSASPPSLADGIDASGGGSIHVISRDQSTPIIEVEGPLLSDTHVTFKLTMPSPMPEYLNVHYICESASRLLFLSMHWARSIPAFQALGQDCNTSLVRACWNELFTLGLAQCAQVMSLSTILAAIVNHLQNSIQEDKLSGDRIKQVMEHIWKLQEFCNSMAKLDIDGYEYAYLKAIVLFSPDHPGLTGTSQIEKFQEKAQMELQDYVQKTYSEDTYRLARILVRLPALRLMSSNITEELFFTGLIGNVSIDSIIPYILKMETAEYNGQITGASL

% coverage [1] [%] | total peptides [1] [peptides] | % coverage [2] [%] | total peptides [2] [peptides] | % coverage [3] [%] | total peptides [3] [peptides] | Substance
4.4 | 2 | 8.9 | 3 | – | – | HDAC1 (from UniProt O09106 1-482) (enzyme)
– | – | 4.9 | 2 | – | – | HDAC2 (from UniProt P70288 1-488) (enzyme)
8.7 | 7 | 1.8 | 1 | 1.7 | 1 | MTA1 (from UniProt Q8K4B0 1-715)
1.1 | 1 | 4.4 | 6 | 5.3 | 4 | Mi2β (from UniProt Q6PDQ2 1-1915) (enzyme)
7.8 | 10 | 11 | 7 | 17.8 | 9 | NonO (from UniProt Q99K48 1-473)
3.3 | 1 | 4.6 | 2 | 7.8 | 3 | PSPC1 (from UniProt Q8R326 1-523)
2 | 2 | – | – | 6.8 | 3 | RbAp46 (from UniProt Q60973 2-425)
2 | 2 | 1.9 | 1 | 6.3 | 3 | RbAp48 (from UniProt Q60972 2-425)

More lines, now with the values behind:

Substance | % coverage [1] [%] | total peptides [1] [peptides] | % coverage [2] [%] | total peptides [2] [peptides] | % coverage [3] [%] | total peptides [3] [peptides]
BRG1 (from UniProt Q3TKT4 1-1613) (enzyme) | 1.4 | 2 | 0.8 | 1 | – | –
CAPER (from UniProt Q8VH51 2-530) | – | – | 2.6 | 1 | 4.9 | 2
DNA methyltransferase 1 (DNMT1) (from UniProt P13864 1-1620) (enzyme) | 13.5 | 35 | 10.4 | 15 | 10.1 | 14
HCF1 (Host Cell Factor 1) (from UniProt Q61191 2-2045) | 2.5 | 4 | 0.8 | 1 | 1.4 | 2
MTA2 (from UniProt Q9R190 1-668) | 2.8 | 2 | – | – | – | –
SFPQ (from UniProt Q8VIJ6 1-699) | 15.3 | 12 | 18.2 | 10 | 15.9 | 8
Sin3A (from UniProt Q60520 1-1274) | – | – | 1.1 | 1 | – | –
transcriptional intermediary factor (TIF)-1beta (from UniProt Q62318 2-834) | 12.7 | 16 | 1.8 | 1 | 9 | 6
